Legend:
[1] = target: T1, PRAME peptide on HLA-A*02:01 (human); assay: killing
T1 peptide: SLLQHLIGL

[2] = target: T2, PRAME peptide on HLA-A*02:01 (human); assay: multimer staining
T2 peptide: VLDGLDVLL

binding result [2]: recognises
B1: TCR T4.8-1-29 (TCR, V domains shown)
Valpha: EDQVTQSPEALRLQEGESSSLNCSYTVSGLRGLFWYRQDPGKGPEFLFTLYSAGEEKEKERLKATLTKKESFLHITAPKPEDSATYLCAVHSTAQAGTALIFGKGTTLSVSS
Vbeta: DSGVTQTPKHLITATGQRVTLRCSPRSGDLSVYWYQQSLDQGLQFLIQYYNGEERAKGNILERFSAQQFPDLHSELNLSSLELGDSALYFCASSTHRGQTNYGYTFGSGTRLTVV
binding result [1]: no recognition

Reference: patent US20190169261A1 (published 2019)
